Data on two proteins can be found in paper PMC5177888, “An Adaptation To Life In Acid Through A Novel Mevalonate Pathway” (Scientific Reports, 2016).

Data set [1] concerns the molecule itself. Kind of data set: SEC; recombinant Ta0893 (co-expressed with GroEL/ES) mixed with Biorad gel filtration standard, Superdex S200 10/300 GL, 50 mM sodium phosphate pH 6.5, 500 mM NaCl; fractions assayed for MBD activity; apparent molecular weight from the activity profile.
Data set [2] deals with the molecule itself. The data set can be described thus: SEC; T. acidophilum cell-free lysate mixed with Biorad gel filtration standard, Superdex S200 10/300 GL, 50 mM sodium phosphate pH 6.5, 500 mM NaCl; fractions assayed for MBD activity; apparent molecular weight from the activity profile. Background: In gel filtration, larger molecules generally elute earlier.

The term stoichiometry N denotes a count of units in the complex or per binding partner.

B1: mevalonate 3,5-bisphosphate decarboxylase (Ta0893) from Thermoplasma acidophilum, recombinant, full length, co-expressed with GroEL/GroES (enzyme, UniProt Q9HJS1 1-405, looked up)
chain: MDTAGMEHSVSWISSNSDELILRSWISSRMDIAELHRAGDDIKEMMKSEGYYSEPSKYEAELSDGNITFAYSYPIKAFEKFLGYYDRENRIAFNPSISMRTDFSFCLAACRYRKNGKTDTVVLDGYADNKYYKKAKFALDKFRSEYSINGSFDFYIKRYRRYQKAKGLSESSAVAAAVSRALISNVFGDDAAKDDIFVSRYARLVSGSGTRAAHDGISMWLSYPGMDSRDCVAFKVGKSNENLNYGVFPKYSDVATDNAHSIAVNSVFYGTWVSEKFSNVKRLISDHFDINDLLKIGENDMLRLNSILMSGGLIIQTPDSLRILKEILKFKSKNEGFYFTADTGPSIAIFSFDRSLIDEFRENVNDEYIEGSYDFKGYNNRMRDFIREAQEYFTQTPGEDEEDRL
notes: Ta0893, mevalonate 3,5-bisphosphate decarboxylase, Thermoplasma acidophilum; NCBI WP_010901303.1; full-length protein; predicted monomer 46.3 kDa; gene codon optimized and synthesized, cloned in pET28a(+) between NdeI and XhoI; The Ni-NTA eluate may still hold E. coli proteins such as the co-expressed chaperones; also called MBD; recombinant Ta0893; source: E. coli BL21(DE3) Gold, co-expressed …
As for B1, the “stoichiometry N” value in data set [1] came out at 2.

B2: mevalonate 3,5-bisphosphate decarboxylase (Ta0893), native, in Thermoplasma acidophilum lysate (enzyme, UniProt Q9HJS1 1-405, looked up)
chain: MDTAGMEHSVSWISSNSDELILRSWISSRMDIAELHRAGDDIKEMMKSEGYYSEPSKYEAELSDGNITFAYSYPIKAFEKFLGYYDRENRIAFNPSISMRTDFSFCLAACRYRKNGKTDTVVLDGYADNKYYKKAKFALDKFRSEYSINGSFDFYIKRYRRYQKAKGLSESSAVAAAVSRALISNVFGDDAAKDDIFVSRYARLVSGSGTRAAHDGISMWLSYPGMDSRDCVAFKVGKSNENLNYGVFPKYSDVATDNAHSIAVNSVFYGTWVSEKFSNVKRLISDHFDINDLLKIGENDMLRLNSILMSGGLIIQTPDSLRILKEILKFKSKNEGFYFTADTGPSIAIFSFDRSLIDEFRENVNDEYIEGSYDFKGYNNRMRDFIREAQEYFTQTPGEDEEDRL
notes: Ta0893, mevalonate 3,5-bisphosphate decarboxylase, Thermoplasma acidophilum; NCBI WP_010901303.1; predicted monomer 46.3 kDa; followed as MBD activity in the lysate; also called MBD; native MBD; source: endogenous, T. acidophilum cell-free lysate
With B2, the “stoichiometry N” value in data set [2] was determined as 2.
